Values belong to the binder of their own block, whether it stands above or below them.
Biological target: T1, EGFR-ECD (extracellular domain of human epidermal growth factor receptor, 1-643) (Homo sapiens, UniProt P00533, N-linked oligosaccharides cleaved by endoglycosidase H)
T1 construct: human epidermal growth factor receptor, extracellular domain, residues 1-643 as printed; A TEV site between the ECD and the His-tag is implied by the cleavage; also called extracellular domain of human EGFR; human EGFR-ECD; source: HEK293S GnTI- cells, transient overexpression, secreted; purified (HisTrap, TEV cleavage of the His-tag, endoglycosidase H, HiTrap Q, SEC); not shown: His-tag, …
Assay: SPR; BIAcore 3000; EGFR-ECD immobilised on a CM5 chip by amine coupling; single-cycle kinetics with 50.0, 16.6, 5.55, 1.85 and 0.617 nM Fv or Fab; 30 ul/min, 60-s association, 120-s dissociation; 25 C; HBS-EP+ buffer; triplicate
Details: both partners purified

B2: 059-152-Fab (Fab fragment of the fully human anti-EGFR antibody 059-152) (Fab, V domains shown)
VH: QVQLQESGPGLVKPSETLSLTCTVSGGSISSSSYYWGWIRQPPGKGLEWIGSIYYSGSTYYNPSLKSRVTISVDTSKNQFSLKLSSVTAADTAVYYCARLPMVTMSFDYWGQGTLVTVSS
VL: SYVLTQPPSVSVAPGKTARITCGGNNIGSKSVHWYQQKPGQAPVLVIYYDSDRPSGIPERFSGSNSGNTATLTISRVEAGDEADYYCQVWDSSSDHVVFGGGTKLTVL
notes: also in PDB 5XWD; its VL part is in PDB 5XWD; source: cell-free synthesis (E. coli S30 extract, dialysis mode, 0.8 mg/ml DsbC), purified (HisTrap, TEV cleavage, SEC); not shown: N11-tag, N-terminal, cleaved
Kd: 7.7 ± 0.1 nM | koff: 0.015 s⁻¹ | kon: 1.94e+06 M⁻¹ s⁻¹

B3: Alexa-488 conjugated 059-152-Fab (Fab, V domains shown)
VH: B2 VH
VL: B2 VL
notes: also in PDB 5XWD; linker inserted just before the stop codon, followed by the amber codon that is read as AzF; m6 after copper-free click chemistry; also called Alexa-488 conjugated Fab; not shown: N11-tag, N-terminal, cleaved
Kd: 8.1 ± 0.2 nM | koff: 0.0133 s⁻¹ | kon: 1.67e+06 M⁻¹ s⁻¹

B5: AzF-incorporated 059-152-Fab (Fab, V domains shown)
VH: B2 VH
VL: B2 VL
notes: also in PDB 5XWD; linker inserted just before the stop codon, followed by the amber codon that is read as AzF; AzF is the last residue of the VHCH1 chain, after the linker; also called AzF-incorporated Fab; not shown: N11-tag, N-terminal, cleaved
Kd: 7 ± 0.1 nM | koff: 0.0125 s⁻¹ | kon: 1.78e+06 M⁻¹ s⁻¹

The next binders have a lower Kd than those just listed; values first:

Kd: 5.9 ± 0.1 nM | koff: 0.0147 s⁻¹ | kon: 2.49e+06 M⁻¹ s⁻¹
B1: 059-152-Fv (Fv fragment of the fully human anti-EGFR antibody 059-152) (other)
VH: B2 VH
VL: B2 VL
notes: also in PDB 5XWD; VL also in PDB 5XWD; Fv: VH and VL synthesised together as two separate chains; source: cell-free synthesis (E. coli S30 extract, dialysis mode, 0.2 mg/ml DsbC), purified (HisTrap, TEV cleavage, SEC); not shown: N11-tag, N-terminal, cleaved

Kd: 5.8 ± 0.2 nM | koff: 0.0137 s⁻¹ | kon: 2.36e+06 M⁻¹ s⁻¹
B4: AzF-incorporated 059-152-Fv (other, human)
VH: B2 VH
VL: B2 VL
notes: also in PDB 5XWD; linker inserted just before the stop codon, followed by the amber codon that is read as AzF; Fv; AzF is the last residue of the VH chain, after the linker; also called AzF-incorporated Fv; not shown: N11-tag, N-terminal, cleaved

Kd: 6.1 ± 0.1 nM | koff: 0.0154 s⁻¹ | kon: 2.52e+06 M⁻¹ s⁻¹
B6: Alexa-488 conjugated 059-152-Fv (other, human)
VH: B2 VH
VL: B2 VL
notes: also in PDB 5XWD; linker inserted just before the stop codon, followed by the amber codon that is read as AzF; Fv; m3 after copper-free click chemistry; also called Alexa-488 conjugated Fv; not shown: N11-tag, N-terminal, cleaved

Source: PMC5819829, “Cell-free synthesis of functional antibody fragments to provide a structural basis for antibody–antigen interaction” (PLoS ONE, 2018)
